Source: paper PMC10755749
pKd: −log10 of the molar value.

Columns and labels:
[1] = test system: MPXV A29 protein (mpox virus); assay: SPR
[2] = test system: MPXV A29 protein;anti-A29 IgG antibody (mpox virus;); assay: single-molecule nanopore, Hill fit; conditions: 5'-phosphate on aptamer probe, ligated into carrier
anti-A29 IgG antibody = assay: single-molecule nanopore; conditions: 5'-phosphate on aptamer probe, ligated into carrier
[3] = test system: VZV protein;anti-A29 IgG antibody (Varicella zoster virus;); assay: single-molecule nanopore; conditions: 5'-phosphate on aptamer probe, ligated into carrier
[4] = test system: VACV A27 protein;anti-A29 IgG antibody (Vaccinia virus (Copenhagen?);); assay: single-molecule nanopore; conditions: 5'-phosphate on aptamer probe, ligated into carrier
[5] = test system: MPXV A29 protein;anti-A29 IgG antibody (mpox virus;); assay: single-molecule nanopore; conditions: 5'-phosphate on aptamer probe, ligated into carrier
[6] = test system: MPXV A29 protein;anti-A29 IgG antibody (mpox virus;); assay: single-molecule nanopore; conditions: 5'-phosphate on aptamer probe, ligated into carrier; remark: listed apart in the source

Sequence	pKd [1]	other results
AGCACTCCACGCATAACCGGTGGGCGGGGGATGTGGGAAGGTATCGGGGTTGCGTTATGCGTGCTACCGT [HIM-A29-5]	8.07	–
AGCACTCCACGCATAACGGAGCCGGGGGGCCTTGGGGGATGCAGCTTCGAAGTGTTATGCGTGCTACCGT [HIM-A29-2]	7.45	–
AGCACTCCACGCATAACGGGGGAGGAGGAGGATGTTATTGGGTGGGCGGGTTTGTTATGCGTGCTACCGT [HIM-A29-4]	7.73	–
AGCACTCCACGCATAACGGGGGAGGAGGAGGTTCACTTTGGGCGGGTGGGAATGTTATGCGTGCTACCGT [HIM-A29-3]	7.91	–
AGCACTCCACGCATAACGGGGTCTGGTGGTCTGGCTGGTTTGGGGGTTTGGTCGTTATGCGTGCTACCGT [HIM-A29-1]	7.97	–
CACGCATAACGTCTTGCGGGGCGGCGGGTTGAGAGGATGTCGGGTGGTTATGCGTG [HIM-A29-6]	> 8.00	–
CACTGCGCCGGTATCGATATATTTTTTCACGCATAACGTCTTGCGGGGCGGCGGGTTGAGAGGATGTCGGGTGGTTATGCGTG / AAACCACTCAAGTTTGCCAACCAAATGTATATCGATACCGGCGCAGTG [9.1 kbp DNA molecular probe with HIM-A29-6]	–	pKd [2]: 10.08; binding signal (% events with subpeak) (anti-A29 IgG antibody): 0.01; binding signal (% events with subpeak) [3]: 0; binding signal (% events with subpeak) [4]: 0.01; binding signal (% events with subpeak) [5]: 3.98; binding signal (% events with subpeak) [6]: 3.98
